Assay results reported in patent US8227408B2, “Leptin as an anti-amyloidogenic biologic and methods for delaying the onset and reducing Alzheimer's disease-like pathology” (Neurotez, Inc., priority 2005, dated 2012).

System: Tg2576 mice
Assay: Chronic s.c. leptin infusion in Tg2576 mice under high or low fat diet
Format: in vivo, mouse
Procedure: Blood was withdrawn (approximately 1 ml) from deeply anaesthetized animals by cardiocentesis and mixed with 25 μl of 164 μM EDTA anticoagulant. Plasma was prepared immediately and frozen at −70° C. Plasma leptin concentrations were determined by a radioimmunoassay (RIA) (Chung et al., Am. J Physiol. 274:R985-R990 (1998)), using a kit from LINCO Research, Inc. (Missouri).
APPswe (SEQ ID NO: 13) expressing mice (Tg2576) or wild-type littermates were maintained in pathogen-free environment at 25° C. on a 12-12 h light-dark cycle. Mice were euthanized between the ages of 31 and 40 weeks. They were provided ad libidum access for up to 9 weeks (i.e., 1 week prior to leptin treatments and 8 weeks during such treatments) to a high fat diet (D12451) containing about 45% of the total calories from fat (Research Diets, NJ) or to a low fat diet (D12450B) containing about 10% of the total calories from fat. Equal number of male and female Tg2576 mice under each diet were administered leptin or a placebo (PBS) from the age of 32 wks to up to 40 wks of age. For this, mice were anaesthetized with intraperitoneal injection of ketamine (55 mg/ml) and xylazine (7-10 mg/ml) and surgically fitted with an Alzet miniosmotic pump (model 2004, Durect Co, CA) placed subcutaneously. Local subcutaneous injection of 0.5 ml of 0.5% lidocaine insured postoperative relief. Half of the mice received daily about 20 μg leptin in PBS (0.25 μl/h of 3.33 mg/ml recombinant murine leptin) and the other half were infused with PBS. Four from each group (two males and two females) were euthanized after 4 weeks treatment. Osmotic pumps were replaced in the rest and the mice then treated for a total period of 8 weeks. Wild-type littermates were also treated with leptin under high or low diet regimens. […]
In panel (a), plasma leptin was quantified in one year old mice with the following genotypes: i) double mutant APPSwe/PS1M146V ii) single mutant PS1M146V and iii) wild-type (a cross between C57BL/6Ntac and B6SJLF2). […] Plasma Aβ was also measured in these mice prior to treatment. […] In panel (c), plasma leptin was determined by radioimmunoassay (“RIA”) (LINCO Research, Inc.) in 8 month old Tg2576 and WT littermate mice and then again following treatments as described in FIG. 4b. Leptin also was measured in WT but not Tg2576 mice prior to treatment. In panel (d), plasma insulin was determined by RIA (LINCO Research, Inc.) in 8 month old WT and Tg2576 mice and then again following a 2 month LFD or HFD with (+) or without (−) leptin infusion. In panel (e), plasma total Aβ (Aβ40 (SEQ ID NO: 4) plus Aβ42/43 (SEQ ID NO: 5/SEQ ID NO: 6) was measured in 8 month Tg2576 mice and then again following a 2 month LFD or HFD with (+) or without (−) leptin infusion. […]

B1: Leptin: peptide hormone controlling adaptive metabolic mechanisms to energy availability; leptin (Harbor-UCLA) in vitro, recombinant murine leptin in mice (protein, UniProt P41160 22-167, looked up)
Leptin: VPIQKVQDDTKTLIKTIVTRINDISHTQSVSAKQRVTGLDFIPGLHPILSLSKMDQTLAVYQQVLTSLPSQNVLQIANDLENLRDLLHLLAFSKSCSLPQTSGLQKPESLDGVLEASLYSTEVVALSRLQGSLQDILQQLDVSPEC
levels of circulating Aβ (total Aβ in the plasma) (Tg2576, both diets, 2 month leptin infusion): lower the levels of circulating Aβ under both diets | APP expression in adipocytes (adipose tissue of mice under high or low fat diets, data not shown): no apparent influence | fasting insulin levels (plasma, RIA) (all groups (WT and Tg2576, LFD and HFD), 2 month leptin infusion): decreased fasting insulin levels in all groups | brain Aβ load (chronic administration, s.c. Alzet pump about 20 μg leptin daily, up to 8 weeks): reduced the brain Aβ load
